From PMC7205207, “Modeling and mitigation of high-concentration antibody viscosity through structure-based computer-aided protein design” (PLoS ONE, 2020)
Changes are numbered by the printed parent chain. Names may count otherwise.

B1: AB-001 (antibody, V domains shown)
VH: EVQLLESGGGLVQPGGSLRLSCAASGFTFSSYAMSWVRQAPGKGLEWVSYISDDGSLKYYADSVKGRFTISRDNSKNTLYLQMNSLRAEDTAVYYCAKHPYWYGGQLDLWGQGTLVTVSS
VL: SYELTQPPSVSVSPGQTASITCSGDSLGSYFVHWYQQKPGQSPVLVIYDDSNRPSGIPERFSGSNSGNTATLTISGTQAMDEADYYCSAFTHNSDVFGGGTKLTVL
notes: VH of AB-001; VL of AB-001; only the variable regions are written; also called parental AB-001; parental clone; source: HEK293, transient, purified from conditioned medium (protein A, TMAE, HIC)
B2: R2-013 (antibody, V domains shown)
VH: B1 VH with E6Q, Q13K, D53N, K98R
VL: B1 VL with E3V, S13A, Q16K, S19R, N52K
notes: as the VH of m20 (R2-001_HC) with D52aN; as the VL of m20 (R2-001_LC); only the variable regions are written; source: HEK293, transient, purified from conditioned medium (protein A, TMAE, HIC)
B3: R2-012 (antibody, V domains shown)
VH: B1 VH with E6Q, Q13K, D53K, K98R
VL: B1 VL with E3V, S13A, Q16K, S19R, N52K
notes: as the VH of m20 (R2-001_HC) with D52aK; as the VL of m20 (R2-001_LC); only the variable regions are written; source: HEK293, transient, purified from conditioned medium (protein A, TMAE, HIC)
B4: R2-019 (antibody, V domains shown)
VH: B1 VH with E6Q, Q13K, K98R
VL: B1 VL with E3V, S13A, Q16K, S19R, D49L, N52K
notes: as the VH of m20 (R2-001_HC); as the VL of m20 (R2-001_LC) with D50L (Kabat); only the variable regions are written; source: HEK293, transient, purified from conditioned medium (protein A, TMAE, HIC)
B5: R1-017 (antibody, V domains shown)
VH: B1 VH with Q13K, K98R
VL: B1 VL with T17R
notes: only the variable regions are written; source: HEK293, transient, purified from conditioned medium (protein A, TMAE, HIC)
B6: R2-008 (antibody, V domains shown)
VH: B1 VH with E6Q, Q13K, K98R
VL: B1 VL with E3V, S13A, Q16K, S19R, N52K, S66K
notes: as the VH of m20 (R2-001_HC); as the VL of m20 (R2-001_LC) with S67K (Kabat); only the variable regions are written; source: HEK293, transient, purified from conditioned medium (protein A, TMAE, HIC)
B7: R1-014 (antibody, V domains shown)
VH: B1 VH with E6Q, Q13K, K98R
VL: B1 VL with T17R
notes: as for B5
B8: R1-007 (antibody, V domains shown)
VH: B1 VH with E6Q, Q13K, K98R
VL: B1 VL
notes: VL of AB-001 (AB-001_LC); only the variable regions are written; source: HEK293, transient, purified from conditioned medium (protein A, TMAE, HIC)
B9: R1-004 (antibody, V domains shown)
VH: B1 VH with A23R, K98R
VL: B1 VL
notes: as for B8
B10: R1-005 (antibody, V domains shown)
VH: B1 VH with D53N, K98R
VL: B1 VL
notes: as for B8
B11: R1-012 (antibody, V domains shown)
VH: B1 VH with E6Q, Q13K, K98R
VL: B1 VL with E3V
notes: Kabat position; only the variable regions are written; source: HEK293, transient, purified from conditioned medium (protein A, TMAE, HIC)
B12: R2-015 (antibody, V domains shown)
VH: B1 VH with E6Q, Q13K, D62N, K98R
VL: B1 VL with E3V, S13A, Q16K, S19R, N52K
notes: as the VH of m20 (R2-001_HC) with D61N; as the VL of m20 (R2-001_LC); only the variable regions are written; source: HEK293, transient, purified from conditioned medium (protein A, TMAE, HIC)
B13: R2-001 (antibody, V domains shown)
VH: B1 VH with E6Q, Q13K, K98R
VL: B1 VL with E3V, S13A, Q16K, S19R, N52K
notes: R2-001_HC: as the VH of m17 (R1-016), on which R2-001 was built; R2-001_LC: as the VL of m17 (R1-016) with FW1 changed to that of IGLV3-21*01; only the variable regions are written; also called round 2 parental R2-001; R2-001_HC with R2-001_LC; source: HEK293, transient, purified from conditioned medium (protein A, TMAE, HIC)
B14: R2-022 (antibody, V domains shown)
VH: B1 VH with E6Q, Q13K, K98R
VL: B1 VL with E3V, S13A, Q16K, S19R, N52K, D95N
notes: as the VH of m20 (R2-001_HC); as the VL of m20 (R2-001_LC) with D96N (Kabat); only the variable regions are written; source: HEK293, transient, purified from conditioned medium (protein A, TMAE, HIC)
B15: R2-005 (antibody, V domains shown)
VH: B1 VH with E6Q, Q13K, K98R
VL: B1 VL with E3V, S13A, Q16K, S19R, Y48R, N52K
notes: as the VH of m20 (R2-001_HC); as the VL of m20 (R2-001_LC) with Y49R (Kabat); only the variable regions are written; source: HEK293, transient, purified from conditioned medium (protein A, TMAE, HIC)
B16: R1-006 (antibody, V domains shown)
VH: B1 VH with K98R, Q106R
VL: B1 VL
notes: as for B8
B17: R1-009 (antibody, V domains shown)
VH: B1 VH
VL: B1 VL with T17R
notes: VH of AB-001 (AB-001_HC); only the variable regions are written; source: HEK293, transient, purified from conditioned medium (protein A, TMAE, HIC)
B18: R1-013 (antibody, V domains shown)
VH: B1 VH with E6Q, K98R
VL: B1 VL with T17R
notes: as for B5

Key:
[1] = AC-SINS; self-association assay, as in Avery et al. [35]; score = smoothed max absorbance of the antibody sample minus that of the average blank (PBS); scores >=11 considered high; settings: other: AC-SINS
[2] = target: T1, human PDGF-BB (platelet derived growth factor B homodimer) (human, UniProt P01127 82-190); assay: SPR; Biacore T200, full kinetics; antibody captured by anti-human IgG on a CM5 chip; human PDGF-BB at 20, 10, 5, 2.5 and 1.25 nM, 50 s injection; HBS-EP+ N; 25 C; 1:1 Langmuir fit; settings: both partners purified
T1 construct: Platelet derived growth factor B, human, homodimer, bought from PeproTech; the printed catalogue number may stand for 100-14B; source: bought: PeproTech, Catalog 100-148

[3] = target: T1, human PDGF-BB (platelet derived growth …); assay: SPR; Biacore T200, off-rate screen; antibody captured (~70 to 100 RU) by anti-human IgG amine-coupled to a CM5 chip; human PDGF-BB injected at a single 2.5 nM for 170 s, dissociation 300 s; HBS-EP+ N (10 mM HEPES, 500 mM NaCl, 3 mM EDTA, 0.05% Tween20, pH 7.4); 25 C; settings: both partners purified
[4] = target: T2, human PDGF-BB (platelet derived growth factor B homodimer) (human, UniProt P01127); assay: as above; settings: both partners purified
T2 construct: Platelet derived growth factor B, human, homodimer, bought from PeproTech; the printed catalogue number may stand for 100-14B; source: bought: PeproTech, Catalog 100-148

[5] = AC-SINS; self-association assay, as in Avery et al. [35]; score = smoothed max absorbance of the antibody sample minus that of the average blank (PBS); scores >=11 considered high; settings: other: AC-SINS; remark: listed apart in the source
[6] = target: T2, human PDGF-BB (platelet derived growth …); assay: SPR; Biacore T200, full kinetics; antibody captured by anti-human IgG on a CM5 chip; human PDGF-BB at 20, 10, 5, 2.5 and 1.25 nM, 50 s injection; HBS-EP+ N; 25 C; 1:1 Langmuir fit; settings: both partners purified

T1 sequence (P01127 82-190): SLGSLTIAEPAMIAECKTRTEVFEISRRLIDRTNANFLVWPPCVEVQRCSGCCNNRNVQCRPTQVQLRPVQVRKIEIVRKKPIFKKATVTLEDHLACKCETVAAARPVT
T2 sequence (P01127 82-190): as above

| Binder | koff [4] | also measured |
| --- | --- | --- |
| B1 | – | AC-SINS Score [1]: 22; Kd [2]: 0.0948 ± 0.0292 nM; koff [2]: 0.000457 s⁻¹; kon [2]: 5.05e+06 M⁻¹ s⁻¹; koff [3]: 0.000319 s⁻¹ |
| B2 | 0.000344 s⁻¹ | – |
| B3 | 0.000347 s⁻¹ | – |
| B4 | 0.000673 s⁻¹ | – |
| B5 | 0.000471 s⁻¹ | – |
| B6 | 0.000396 s⁻¹ | – |
| B7 | 0.000405 s⁻¹ | – |
| B8 | 0.000282 s⁻¹ | – |
| B9 | 0.000258 s⁻¹ | – |
| B10 | 0.000381 s⁻¹ | – |
| B11 | 0.000304 s⁻¹ | – |
| B12 | 0.000834 s⁻¹ | – |
| B13 | 0.000417 s⁻¹ | AC-SINS Score [5]: 24; Kd [6]: 0.102 ± 0.0323 nM; koff [6]: 0.000292 s⁻¹; kon [6]: 3.09e+06 M⁻¹ s⁻¹ |
| B14 | 0.000361 s⁻¹ | – |
| B15 | 0.000348 s⁻¹ | – |
| B16 | 0.000314 s⁻¹ | – |
| B17 | 0.000393 s⁻¹ | – |
| B18 | 0.000297 s⁻¹ | – |
